Measurements reported in article PMC10925295 (bioRxiv, 2024).

Key:
[1] = target: UbcH5B-GSlinker-ccRING3 fusion protein (UniProt Q86YT6); test: crystal structure
SEC-MALS = target: the molecule itself; test: SEC-MALS
crystal structure = target: the molecule itself; test: crystal structure

Molecule: UbcH5B-GSlinker-ccRING3 fusion protein (from UniProt Q86YT6 936-1006)
- stoichiometry N [1]: 2

B1: ANK-RING1-3 of hMIB1 (residues 417-1006) (domain or fragment)
chain: QLLKKLFETQESGDLNEELVKAAANGDVAKVEDLLKRPDVDVNGQCAGHTAMQAASQNGHVDILKLLLKQNVDVEAEDKDGDRAVHHAAFGDEGAVIEVLHRGSADLNARNKRRQTPLHIAVNKGHLQVVKTLLDFGCHPSLQDSEGDTPLHDAISKKRDDILAVLLEAGADVTITNNNGFNALHHAALRGNPSAMRVLLSKLPRPWIVDEKKDDGYTALHLAALNNHVEVAELLVHQGNANLDIQNVNQQTALHLAVERQHTQIVRLLVRAGAKLDIQDKDGDTPLHEALRHHTLSQLRQLQDMQDVGKVDAAWEPSKNTLIMGLGTQGAEKKSAASIACFLAANGADLSIRNKKGQSPLDLCPDPNLCKALAKCHKEKVSGQVGSRSPSMISNDSETLEECMVCSDMKRDTLFGPCGHIATCSLCSPRVKKCLICKEQVQSRTKIEECVVCSDKKAAVLFQPCGHMCACENCANLMKKCVQCRAVVERRVPFIMCCGGKSSEDATDDISSGNIPVLQKDKDNTNVNADVQKLQQQLQDIKEQTMCPVCLDRLKNMIFLCGHGTCQLCGDRMSECPICRKAIERRILLY
- stoichiometry N (SEC-MALS): 2

B2: ccRING3 region of human MIB1 (third RING domain and adjacent coiled coil region, residues 936-1006) (domain or fragment)
chain: KDKDNTNVNADVQKLQQQLQDIKEQTMCPVCLDRLKNMIFLCGHGTCQLCGDRMSECPICRKAIERRILLY
- stoichiometry N (crystal structure): 2
